Results on two substances are retold here after patent US20050287608A1.

This assay has as its target ubiquitinated proteins of yeast cells. Kind of assay: Flag purification from yeast cells, anti-Ub immunoblot. (In western blotting, separated proteins are transferred to a membrane and probed.)

“Flag-rad23^uba1 (yeast Rad23 L183A, amino-terminal Flag epitope) (from UniProt P32628 1-398)” showed a reduction in the amount of ubiquitinated protein recovered, against Flag-Rad23 of 80%.
For the substance “Flag-rad23^Δuba1 (yeast Rad23 with residues 141-190 removed, amino-terminal Flag epitope) (from UniProt P32628 1-140; P32628 191-398)”, the interaction remaining, compared to the wildtype protein is 1%.
